Source: the supplement of paper PMC11865577

Tests used:
Experiment in all cases: pull-down binding Z-score (relative to library population); higher = stronger binding
Settings in all cases: RNA library: Library-2
[1] = test system: TO-3-N3 (biotin conjugate)
In short: (§1)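 Heat-folded RNA library (1 μg, Cy5 or Cy3 end label, phosphate/NaCl/KCl buffer) was captured for 60 min at 25 °C on streptavidin beads displaying 100 pmol of biotin-conjugated small molecule, then washed three times. The bound fraction, eluted in hot SDS, was hybridised to a DNA barcode microarray at 55.5 °C for 20 h. Z-scores for binding were taken against the library mean and standard deviation after beads-only subtraction and trimmed averaging of replicate barcoded probes.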

[2] = test system: TO-3-N3-2 (biotin conjugate)
In short: as §1

TO-N3 (biotin conjugate) = test system: TO-N3 (biotin conjugate)
In short: as §1

[3] = test system: TO-N3-2 (biotin conjugate)
In short: as §1

| Sequence | pull-down binding Z-score [1] | pull-down binding Z-score [2] | pull-down binding Z-score (TO-N3 (biotin conjugate)) | pull-down binding Z-score [3] |
| --- | --- | --- | --- | --- |
| UGCAGCAGAAACGCUCA [SHAPE_invitro_SARS-CoV-2_Motif_303] | 0.273 | 0.0228 | 0.371 | 0.533 |
| UGCAUUUCUUACCUAGAGUUUUUAGUGCA [DMSMaPseq_invitro_SARS-CoV-2_Motif_163] | -0.82 | -0.416 | -1.09 | -1.24 |
| UGCCAUUUGUCAUGAUGGAAAAGCACACUUUCCUCGUGAAGGUGUCUUUGUUUCAAAUGGCA [SHAPE_invivo_SARS-CoV-2_Motif_465] | -0.108 | -0.218 | -0.0789 | -0.463 |
| UGCCGACUACUAUAGCAAAGAAUACUGUUAAGAGUGUCGGUA | -0.357 | -0.206 | -0.385 | -0.182 |
| UGCCUUCAAACUCAACAUUAAAUUGUUGGGUGUUGGUGGCA | -0.701 | -0.352 | -0.909 | -1.07 |
| UGCGAGAAAUGCUUGCA [SHAPE_invitro_SARS-CoV-2_Motif_85] | 1.12 | -0.0133 | 0.918 | -0.155 |
| UGCUAACUAAGGGCA | 0.877 | -0.0827 | 0.627 | -0.388 |
| UGCUCAAGAAGCUUAUGAGCA [SHAPE_invivo_SARS-CoV-2_Motif_229] | -0.554 | 0.0729 | -0.253 | 0.0417 |
| UGCUGAGGCUUCUAAGAAGCCUCGGCA | 0.0854 | -0.197 | -0.224 | -1.28 |
| UGCUGUUGUUAAAAUUUAUUGUCCAGCA [SHAPE_invitro_SARS-CoV-2_Motif_28] | -0.341 | -0.134 | -0.582 | -0.921 |
| UGCUUUCGUGGUA | 0.137 | -0.292 | 0.0358 | -0.505 |
| UGCUUUGGUGUAAAGAUGGCCAUGUAGAAACAUUUUACCCAAAAUUACAAUCUAGUCAAGCGUGGCAACCGGGUGUUGCUAUGCCUAAUCUUUACAAAAUGCA | -0.104 | -0.00692 | 0.0858 | 0.252 |
| UGGAAUUGCAAUGUCGAUAGAUAUCCUGCUAAUUCCA | -0.0259 | 0.0197 | 0.0215 | -0.0708 |
| UGGAGGAAUACAAAUCCA [SHAPE_invitro_SARS-CoV-2_Motif_386] | 0.291 | 0.00658 | 0.109 | -0.404 |
| UGGAUGUAAUUAUCUUGGCAAACCACGCGAACAAAUAGAUGGUUAUGUCAUGCAUGCA | -0.833 | -0.0277 | -0.682 | 0.157 |
| UGGCAUGGAAGUCA [DMSMaPseq_invitro_SARS-CoV-2_Motif_525] | 0.0287 | -0.289 | -0.262 | -0.318 |
| UGGCAUUAAUGCUUCAGUUGUAAACAUUCAAAAAGAAAUUGACCGCCUCAAUGAGGUUGCCA | -0.964 | -0.207 | -1.1 | -0.663 |
| UGGCCAUGGUACAUUUGGCUA | 0.537 | -0.0742 | 0.286 | -0.59 |
| UGGCCCCGAUUUCAGCUAUGGUUA [SHAPE_invitro_SARS-CoV-2_Motif_146] | -0.129 | -0.0487 | -0.032 | 0.341 |
| UGGCCGCAAAUUGCACAAUUUGCCCCCA [SHAPE_invitro_SARS-CoV-2_Motif_532] | -0.293 | -0.435 | -0.363 | -0.6 |
| UGGGAUAUUGCCCG [IAV_invivo_PB2_1_Motif_20+IAV_invivo_PB2_1_Motif_20] | -0.462 | -0.289 | -0.0714 | -0.104 |
| UGGGAUUAUCCUA [DMSMaPseq_invitro_SARS-CoV-2_Motif_276] | 0.251 | -0.249 | -0.106 | -0.609 |
| UGGGCACACUUUCUUAUGAACAAUUUAAGAAAGGUGUUCA [SHAPE_invivo_SARS-CoV-2_Motif_116] | -0.385 | -0.384 | -0.52 | -0.779 |
| UGGGGACCAGGAACUAAUCAGACAAGGAACUGAUUACAAACAUUGGCCGCAAAUUGCACAAUUUGCCCCCA | -0.075 | 0.0998 | 0.312 | 0.83 |
| UGGGGAGUUGAACCUA [IAV_invivo_PB2_1_Motif_19+IAV_invivo_PB2_1_Motif_19] | 0.448 | 0.0385 | 0.376 | -0.437 |
| UGGGGAUCACAACUCA [IAV_invivo_PB1_2_Motif_11+IAV_invivo_PB1_2_Motif_11] | 0.479 | -0.0635 | 0.158 | -0.317 |
| UGGGGCGCGAUCAAAACAACGUCGGCCCCA | 0.2 | 0.157 | 0.0437 | -0.439 |

| Sequence | pull-down binding Z-score [1] | pull-down binding Z-score [2] | pull-down binding Z-score (TO-N3 (biotin conjugate)) | pull-down binding Z-score [3] |
| --- | --- | --- | --- | --- |
| UGGGGUUGGGGUUGGGGUUGGGGUUGGGGUUGGGGU [G4_r(UGGGGU)6] | 7.92 | 8.72 | 6.75 | 4.95 |
| UGGGGUUGGGGUUGGGGUUGGGGUUGGGGUUGGGGUUGGGGUUGGGGU [G4_r(UGGGGU)8] | 7.69 | 8.63 | 6.59 | 4.93 |
| UGGGUAGAAUUCGAUCUGUCUAUCCA | -0.51 | -0.21 | -0.686 | -0.327 |
| UGGGUUACAUCCUACACAGGCACCUACACACCUCAGUGUUGACACUAAAUUCAAAACUGAAGGUUUAUGUGUUGACAUACCUGGCAUACCUAAGGACAUGACCUA | -0.497 | -0.293 | -0.257 | 0.213 |
| UGGGUUAUCUUCAACCUA | -0.534 | -0.424 | -0.726 | -0.937 |
| UGGGUUGGGUUGGGUUGGGUUGGGUUGGGU [G4_r(UGGGU)6] | 8.7 | 10.2 | 7.32 | 5.72 |
| UGGGUUGGGUUGGGUUGGGUUGGGUUGGGUUGGGUUGGGU [G4_r(UGGGU)8] | 8.92 | 10.4 | 7.56 | 5.96 |
| UGGUAAUGCUGCUAUCAGCGAUUAUGACUACUAUCGUUAUAAUCUACCA | -0.937 | -0.385 | -1.09 | -0.119 |
| UGGUACUAUCUAUACAGAACUGGAACCA [SHAPE_invitro_SARS-CoV-2_Motif_233] | -0.352 | -0.345 | -0.445 | -0.456 |
| UGGUACUGAAGAUGAUUACCA [SHAPE_invitro_SARS-CoV-2_Motif_57] | -0.272 | 0.306 | -0.278 | 0.00913 |
| UGGUAUUCUUGCUA | -0.297 | -0.339 | -0.551 | -0.632 |
| UGGUGUUAGAAGGUCCUUUUAUGUCUAUGCUAAUGGAGGUAAAGGCUUUUGCAAACUA [SHAPE_invitro_SARS-CoV-2_Motif_149] | -0.638 | -0.276 | -0.58 | -0.562 |
| UGGUUGGUUGGUUGGUUGGUUGGU [G4_r(UGGU)6] | 7.93 | 7.83 | 6.68 | 4.58 |
| UGGUUGGUUGGUUGGUUGGUUGGUUGGUUGGU [G4_r(UGGU)8] | 8.68 | 9.27 | 7.53 | 5.6 |
| UGGUUUCCAACCCACUAAUGGUGUUGGUUACCA | -0.662 | -0.442 | -1.05 | -1.18 |
| UGGUUUGUAACACAAAGGAAUUUUUAUGAACCA [SHAPE_invivo_SARS-CoV-2_Motif_466] | 0.139 | 0.046 | -0.0419 | -0.605 |
| UGGUUUUGCUAAAUUCCUAAAAACUA [DMSMaPseq_invitro_SARS-CoV-2_Motif_244] | -0.45 | -0.0765 | -0.632 | -0.866 |
| UGUAAAUCACAUAAACCACCCAUUAGUUUUCCAUUGUGUGCUAAUGGACAAGUUUUUGGUUUAUA | -0.529 | 0.371 | -0.491 | -0.995 |
| UGUAAGCACAAGCUGAUGAGUACGAACUUAUGUACUCAUUCGUUUCGGAAGAGACAGGUACGUUAAUAGUUAAUAGCGUACUUCUUUUUCUUGCUUUCG [DMSMaPseq_invitro_SARS-CoV-2_Multi_80_ComplexLevel_1] | -1.03 | -0.529 | -0.883 | -0.373 |
| UGUACAUACAGCUAAUAAAUGGGAUCUCAUUAUUAGUGAUAUGUACG [DMSMaPseq_invitro_SARS-CoV-2_Motif_370] | -0.362 | -0.188 | -0.461 | -0.223 |
| UGUACAUCUUCUUUGCAUCAUUUUAUUAUGUAUGGAAAAGUUAUGUGCA [SHAPE_invitro_SARS-CoV-2_Motif_147] | -0.791 | -0.347 | -0.813 | -0.553 |
| UGUACUUGGAUUGGCUGCAAUCAUGCAAUUGUUUUUCAGCUAUUUUGCAGUACA [SHAPE_invivo_SARS-CoV-2_Motif_149] | -0.482 | -0.559 | -0.78 | -0.907 |
| UGUAUGAAAAUGCCUUUUUACCUUUUGCUAUGGGUAUUAUUGCUAUGUCUGCUUUUGCAAUGAUGUUUGUCAAACAUAAGCAUGCA | -0.713 | 0.0997 | -0.547 | -0.447 |
| UGUCACAUCAAUCUGACA | -0.221 | -0.268 | -0.416 | -0.472 |
| UGUCAUUACUUCAGGUGAUGGCA | 0.0463 | -0.0892 | -0.14 | -1.31 |
| UGUCCGUGAUCCACAGACA | -0.695 | -0.597 | -0.9 | -0.685 |
